Experimental data published in patent US20120100140A1.
Numbering of substitutions follows the chain as printed. Names may count otherwise. Values belong to the binder of their own block, whether it stands above or below them.

Columns and labels:
[1] = target: CD64 (FcγRI) (UniProt P12314); assay: solution affinity SPR: antibody titrated into CD64, inhibition of CD64 binding to immobilized IgG1 MAb; average of two titrations
[2] = target: CD16 (FcγRIIIa V158) (UniProt P08637); assay: solution affinity SPR: antibody titrated into CD16, inhibition of CD16 binding to immobilized IgG1 MAb; average of two titrations
CD16 (FcγRIIIa V158), sequence (P08637 17-208 F176V limits assumed): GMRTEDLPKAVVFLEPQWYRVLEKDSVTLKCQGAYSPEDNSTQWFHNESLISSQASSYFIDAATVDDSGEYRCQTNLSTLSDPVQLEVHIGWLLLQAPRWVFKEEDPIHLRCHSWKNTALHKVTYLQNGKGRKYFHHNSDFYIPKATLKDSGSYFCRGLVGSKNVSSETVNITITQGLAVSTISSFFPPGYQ

[3] = target: CD64 (FcγRI) (UniProt P12314); assay: solution affinity SPR: inhibition of CD64 binding to immobilized IgG1 MAb

CD64 (FcγRI), sequence (P12314 16-288 limits assumed): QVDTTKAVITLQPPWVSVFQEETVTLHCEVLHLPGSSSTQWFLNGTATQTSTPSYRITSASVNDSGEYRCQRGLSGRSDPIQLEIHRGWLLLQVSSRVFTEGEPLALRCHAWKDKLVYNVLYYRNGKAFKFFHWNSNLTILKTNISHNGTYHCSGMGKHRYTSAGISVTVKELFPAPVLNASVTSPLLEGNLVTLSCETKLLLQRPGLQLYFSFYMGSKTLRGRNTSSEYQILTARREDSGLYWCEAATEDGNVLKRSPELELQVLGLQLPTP

B1: YC403 (hu5c8 aglycosylated IgG4.P S228P, T299A, T307P, L309K, D399S) (antibody)
heavy: QVQLVQSGAEVVKPGASVKLSCKASGYIFTSYYMYWVKQAPGQGLEWIGEINPSNGDTNFNEKFKSKATLTVDKSASTAYMELSSLRSEDTAVYYCTRSDGRNDMDSWGQGTLVTVSSASTKGPSVFPLAPCSRSTSESTAALGCLVKDYFPEPVTVSWNSGALTSGVHTFPAVLQSSGLYSLSSVVTVPSSSLGTKTYTCNVDHKPSNTKVDKRVESKYGPPCPPCPAPEFLGGPSVFLFPPKPKDTLMISRTPEVTCVVVDVSQEDPEVQFNWYVDGVEVHNAKTKPREEQFNSAYRVVSVLPVKHQDWLNGKEYKCKVSNKGLPSSIEKTISKAKGQPREPQVYTLPPSQEEMTKNQVSLTCLVKGFYPSDIAVEWESNGQPENNYKTTPPVLSSDGSFFLYSRLTVDKSRWQEGNVFSCSVMHEALHNHYTQKSLSLSLG
light: DIVLTQSPATLSVSPGERATISCRASQRVSSSTYSYMHWYQQKPGQPPKLLIKYASNLESGVPARFSGSGSGTDFTLTISSVEPEDFATYYCQHSWEIPPTFGGGTKLEIKRTVAAPSVFIFPPSDEQLKSGTASVVCLLNNFYPREAKVQWKVDNALQSGNSQESVTEQDSKDSTYSLSSTLTLSKADYEKHKVYACEVTHQGLSSPVTKSFNRGEC
modifications: chain 1 pos 1: N-terminal Gln largely converted to pyroglutamate, written Q; Fc aglycosylated
IC50 [1]: 434 µM

B3: EC331 (hu5c8 aglycosylated IgG4.P T299K, T307P with IgG1 CH3) (antibody)
heavy: B1 heavy with A297K, K307L, Q353R, E354D, M356L, S397D, R407K, E417Q, L443P
light: B1 light
modifications: chain 1 pos 1: N-terminal Gln largely converted to pyroglutamate, written Q; Fc aglycosylated
IC50 [1]: 2600 µM

Now those with a lower IC50 [1], led by results:

IC50 [2]: 380 µM
IC50 [1]: 7.56 µM
IC50 [3]: 8 µM
B2: EC326 (hu5c8 IgG4.P S228P, T307P, L309K, D399S, glycosylated) (antibody)
heavy: B1 heavy with A297T
light: B1 light
modifications: heavy chain pos 1: Gln largely converted to pyroglutamate (Table 3.3), written Q; N-linked glycan (G0F, G1F, G2F, G0) at EU N297 = heavy chain pos 295

IC50 [1]: 377 µM
B4: YC401 (hu5c8 aglycosylated IgG4.P S228P, T299A, T307P, D399S) (antibody)
heavy: B1 heavy with K307L
light: B1 light
modifications: chain 1 pos 1: N-terminal Gln largely converted to pyroglutamate, written Q; Fc aglycosylated
